Common to all, as to assay: competition
The target of test [1] is T1, delta opioid receptor (DOR) (UniProt P41143).
T1 chain: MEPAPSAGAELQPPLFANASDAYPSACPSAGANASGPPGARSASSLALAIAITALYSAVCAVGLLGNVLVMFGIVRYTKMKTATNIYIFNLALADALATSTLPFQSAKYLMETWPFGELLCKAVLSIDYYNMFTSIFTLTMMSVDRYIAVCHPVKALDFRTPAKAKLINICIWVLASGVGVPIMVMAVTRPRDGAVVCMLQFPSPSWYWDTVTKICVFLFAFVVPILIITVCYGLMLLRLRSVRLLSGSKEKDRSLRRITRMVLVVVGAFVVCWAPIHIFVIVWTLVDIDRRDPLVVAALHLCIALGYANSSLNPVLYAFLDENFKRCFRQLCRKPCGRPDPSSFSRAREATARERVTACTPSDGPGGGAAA

The target of test [2] is mu opioid receptor (MOR) (UniProt P35372).
Sequence of mu opioid receptor (MOR) (P35372 whole entry): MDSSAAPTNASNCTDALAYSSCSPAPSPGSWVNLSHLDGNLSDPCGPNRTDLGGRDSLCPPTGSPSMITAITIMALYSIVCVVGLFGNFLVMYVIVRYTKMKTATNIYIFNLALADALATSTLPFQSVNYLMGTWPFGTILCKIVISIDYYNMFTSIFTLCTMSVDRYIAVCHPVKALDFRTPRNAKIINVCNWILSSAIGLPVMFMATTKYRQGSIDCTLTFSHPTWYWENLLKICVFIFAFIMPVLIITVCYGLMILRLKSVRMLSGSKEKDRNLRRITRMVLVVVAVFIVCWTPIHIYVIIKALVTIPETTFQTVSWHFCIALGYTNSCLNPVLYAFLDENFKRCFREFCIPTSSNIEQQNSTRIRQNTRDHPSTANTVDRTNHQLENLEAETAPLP
Test [3] concerns the target T2, rat NK1 receptor (rat, UniProt P14600).
T2 chain: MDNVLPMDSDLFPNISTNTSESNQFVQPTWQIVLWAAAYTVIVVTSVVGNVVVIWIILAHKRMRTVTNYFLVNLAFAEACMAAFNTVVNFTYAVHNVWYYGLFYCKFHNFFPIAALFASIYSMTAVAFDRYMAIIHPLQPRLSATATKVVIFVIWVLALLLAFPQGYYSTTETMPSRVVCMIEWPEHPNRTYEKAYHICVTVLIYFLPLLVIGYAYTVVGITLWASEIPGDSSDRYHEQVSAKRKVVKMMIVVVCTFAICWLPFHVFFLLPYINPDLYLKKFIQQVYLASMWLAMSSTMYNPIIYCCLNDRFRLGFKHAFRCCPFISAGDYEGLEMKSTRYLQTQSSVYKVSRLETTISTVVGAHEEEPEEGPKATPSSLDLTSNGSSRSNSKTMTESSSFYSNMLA

Test [4] addresses mu opioid receptor (MOR) (UniProt P35372). The source holds these as a separate data set.
Test [5] concerns the target T3, human NK1 receptor (human, UniProt P25103).
T3 chain: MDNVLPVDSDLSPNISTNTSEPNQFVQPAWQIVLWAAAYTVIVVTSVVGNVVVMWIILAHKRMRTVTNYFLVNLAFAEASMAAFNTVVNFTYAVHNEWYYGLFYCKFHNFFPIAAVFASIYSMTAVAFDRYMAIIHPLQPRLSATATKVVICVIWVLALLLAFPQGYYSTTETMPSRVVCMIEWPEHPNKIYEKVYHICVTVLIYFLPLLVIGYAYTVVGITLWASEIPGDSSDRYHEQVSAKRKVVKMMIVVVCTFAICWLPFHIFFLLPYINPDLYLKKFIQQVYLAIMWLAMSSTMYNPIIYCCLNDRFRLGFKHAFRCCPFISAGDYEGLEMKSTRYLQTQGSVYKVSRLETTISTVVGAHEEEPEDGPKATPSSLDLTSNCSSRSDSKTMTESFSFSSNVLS

Test [6] concerns the target T1, delta opioid receptor (DOR).
The target in test [7] is T2, rat NK1 receptor.
Test [8] addresses mu opioid receptor (MOR) (UniProt P35372). The source holds these as a separate data set.
In test [9] the target is T1, delta opioid receptor (DOR).
The target of test [10] is T2, rat NK1 receptor.
The target in test [11] is T3, human NK1 receptor.
For test [12], the target named is T2, rat NK1 receptor.
The target in test [13] is T3, human NK1 receptor.
Test [14] has as its target T3, human NK1 receptor.
Test [15] concerns the target T1, delta opioid receptor (DOR).
Test [16] concerns the target mu opioid receptor (MOR) (UniProt P35372). The source holds these as a separate data set.
Test [17] has as its target T2, rat NK1 receptor.
The target in test [18] is T3, human NK1 receptor.

Like-named read-outs stand apart in the source and are kept apart here. Non-standard residues stand in square brackets, D forms with d. No end group written: not given here. *: point of attachment. NH(3,5-(CF3)2-benzyl) = FC(F)(F)c1cc(CN*)cc(C(F)(F)F)c1; NMePhe(4-F) = CN[C@@H](Cc1ccc(F)cc1)C(=O)O; Phe(4-F) = N[C@@H](Cc1ccc(F)cc1)C(=O)O; Dmt = Cc1cc(O)cc(C)c1C[C@H](N)C(=O)O; NMeF = CN[C@@H](Cc1ccccc1)C(=O)O; Orn = NCCC[C@H](N)C(=O)O; Dab = NCC[C@H](N)C(=O)O; NHBn = c1ccc(CN*)cc1

One may read the Ki as a dissociation constant, usually derived from enzyme kinetics or from competition with a known ligand. Read a high Ki as a looser hold on the target.

As for XAGFPLW (Dmt1, D-Ala2, NMePhe4; C-terminal NH-Bn(3',5'-(CF3)2)) [AKG115], the figures for the Ki in test [1], in test [2] and in test [3] were 5 nM, 1 nM and 48.3 nM, respectively.

Regarding Y[dA]GFQPLW (not fully specified (C-terminus)) [AKG105], the Ki came out at 38 nM in test [4], 0.92 nM in test [5], 9 nM in [6] and 12.5 nM in [7].

Regarding Y[dA]GF[dQ]PLW (not fully specified (C-terminus)) [AKG103], the inhibition constant (Ki) in test [4] amounted to 116 nM; in test [5], 2.71 nM; in [7] it was 106 nM.

Take Y[dA]G[NMeF][Dab]PLW-NHBn [AKG172]: the Ki stood at 8 nM in [8], 100 nM in test [9], 8.24 nM in test [10] and 3.05 nM in test [11].

Turning to Y[dA]GF[dN]PLW-NHBn [AKG102], the Ki in test [4] is 90 nM; in test [5], 2.26 nM; in test [6], 54 nM; in test [7], 133 nM.

Turning to Y[dA]G[Phe(4-F)]QPLW-NHBn [AKG142], the results for the Ki in test [4], in test [5] and in [6] were 8 nM, 5.71 nM and 2 nM, respectively.

Take YPFFPLW [AKG224]: the Ki in [12] is 33.7 nM; in test [13], 3.39 nM.

Turning to [Dmt][dA]FGYPLW (not fully specified (C-terminus)) [AKG118], the Ki was 2.34 nM in test [14], 3 nM in [15], 1 nM in test [16] and 25.4 nM in test [17].

On to Y[dA]GFNPLW (not fully specified (C-terminus)) [AKG104], for which the inhibition constant (Ki) was 51 nM in test [4], 1.16 nM in test [5], 17 nM in test [6] and 20.2 nM in [7].

As for Y[dA]G[NMeF]PLW-{NH(3,5-(CF3)2-benzyl)} [AKG117], the Ki in [1] stood at 237 nM; in test [2] it was 27 nM; in test [18] it was 3.35 nM; in test [3], 61.1 nM.

For the molecule YPFFPLW [AKG222], the Ki in test [12] amounted to 32.4 nM; in test [13] it was 4.19 nM.

Regarding XAGFPLW (Dmt1, D-Ala2, Phe(4-Cl)4; C-terminal NH-Bn(3',5'-(CF3)2)) [AKG191], the Ki in test [1] amounted to 5 nM; in test [2], 2 nM; in test [3], 26.5 nM.

As for Y[dA]G[NMePhe(4-F)]QPLW-NHBn [AKG143], the Ki in [4] turned out to be 2 nM; in [5], 3.2 nM; in [6], 0.7 nM; in test [7] it was 21.7 nM.

Y[dA]G[Phe(4-F)]PLW-{NH(3,5-(CF3)2-benzyl)} [AKG190]: the inhibition constant (Ki) turned out to be 0.2 nM in test [1], 4 nM in [2], 5.61 nM in [18] and 34.4 nM in test [3].

Take Y[dA]G[NMeF][Orn]PLW (not fully specified (C-terminus)) [AKG173]: the Ki in [8] came out at 5 nM; in test [9], 0.05 nM; in test [10], 65.2 nM; in test [11] it was 15.5 nM.

With YPFFPLW [AKG226], the inhibition constant (Ki) worked out at 31.7 nM in test [12] and 5.9 nM in test [13].

For Y[dA]G[NMeF]QPLW (not fully specified (C-terminus)) [AKG129], the inhibition constant Ki is 7 nM in test [4], 0.83 nM in test [5] and 1 nM in test [6].

Turning to XAGFPLW (Dmt1, D-Ala2, Phe(4-F)4; C-terminal NH-Bn(3',5'-(CF3)2)) [AKG127], the Ki worked out at 1 nM in [1], 1 nM in test [2], 0.88 nM in test [18] and 29.4 nM in [3].

On to XAGFPLW (Dmt1, D-Ala2; C-terminal NH-Bn(3',5'-(CF3)2)) [AKG116], for which the inhibitory constant (Ki) in [1] is 1 nM; in test [2] it was 3 nM; in test [18], 1.4 nM; in test [3] it was 26.9 nM.

Values taken from patent publication US11141452 (dated 2021).
